Measured values as given in patent US20150307610A1 (AbbVie / Abbott, published 2015).

B1: anti-human RAGE monoclonal antibody 11E6 (murine, hybridoma-derived) (antibody, V domains shown)
VH: QIQLVQSGPELKKPGETVKISCKASGYTFTNFGMNWVKQAPGKGLKWMGYINTNTGESIYSEEFKGRFAFSLETSASTAYLQINNLKNEDTATYFCARSRMVTAYGMDYWGQGTSVTVSS
VL: DIVMTQSQKFMSTSVGDRVSITCKASQNVGTAVAWYQQRPGQSPKLLIFSASNRYTGVPDRFTGSGSGTDFTLTLSNMQPEDLADYFCQQYSSYPLTFGVGTKLELKR
notes: also called mAb11E6; ML37-11E6
B2: anti-human RAGE monoclonal antibody 4E5 (murine, hybridoma-derived) (antibody, V domains shown)
VH: QVQLQQSGAELVRPGTSVKVSCKASGYAFNNYLIEWIKQRPGQGLEWIGVINPGSGGTNHNEKFKVKATLTADKSSSTAYIQLSSLTSDDSAVYFCARSAGTARARFAYWGQGTLVTVSA
VL: DIQMTQSPSSLSASLGERVSLTCRASQDIGSSLNWLQQEPDGTIKRLIYATSSLDSGVPKRFSGSRSGSDYSLTISSLESEDFVDYYCLQYASFPFTFGSGTKLEIKR
notes: also called mAb4E5; ML37-4E5

What was measured:
[1] = target: T1, E. coli RAGE Construct #7, 6His-(Thr)-[RAGE (235-336)] (human); test: binding analysis of RAGE mutants of human sRAGE expressed in E. coli
T1 construct: N-terminal 6His-(Thr) tag is part of the entry; expressed in E. coli; also called RAGE protein #7
T1 chain: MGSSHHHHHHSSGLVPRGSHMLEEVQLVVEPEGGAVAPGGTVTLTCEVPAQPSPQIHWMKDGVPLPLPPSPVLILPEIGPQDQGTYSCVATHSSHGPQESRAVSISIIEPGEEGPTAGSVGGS

[2] = target: T2, RAGE fragment coated in Fig. 4C (antigen not named on the sheet); test: direct ELISA: purified E. coli RAGE construct protein coated at 1 ug/mL (construct not named for this panel), mAb titrated, donkey anti-mouse HRP, TMB
T2 construct: Placeholder: the panel cannot be tied to one of m19-m25
Procedure: (§1) Antigens (purified construct #1-7 proteins) were diluted into Coating Buffer [100 mM NaHCO₃, pH 8.2] to 1 μg/ml, and 100 μl of the resulting solution was then aliquoted into a 96-well Nunc Immuno Plate (Maxi-Sorb Surface, flat bottom, catalog #439454). The plate was sealed with sealing film and incubated at 4° C. overnight. The next day, the plate wells were each washed 3 times with 150 μL PBST buffer [Sigma PBS+0.05% Tween 20]. Then 300 ul of blocking solution (3% NFDM in PBST) was added to each well. The plate was incubated for 2 hours at room temperature and shaking at 100 rpm. After the incubation step, each well was again washed three times with 150 uL PBST. 100 ul of the corresponding antibody to be tested (i.e. 7F9, 11E6, and 4E5) was added at various dilutions made in PBST/0.5% BSA. The plate was then sealed with sealing film and incubated for 2 hours at room temperature and shaking at 100 rpm. Next the antibody solution was drained out of the wells, and each well then washed three times with 200 ul PBST. To each well then 200 ul of a 1:5000 dilution (in PBST/1% NFDM) of conjugated secondary antibody [Donkey anti-mouse HRPO conjugate, Jackson Immuno Research, Catalog #715-035-150] was added. […] Finally, 50 μL of 2M H₂SO₄ was added to each well to stop the reaction and the […] of each well was measured using a microtiter plate reader.

[3] = target: T1, E. coli RAGE Construct #7, …; test: ELISA, antigen coated at 1 ug/ml
Procedure: as §1

Row | Binder | binding result [1] | EC50 (read off the curve) [2] | binding result [3]
1 | B1 | binds | ~0.03 nM | 
2 | B2 |  |  | binds
